Measured values as given in US20170015742A1 (published 2017).
Residue numbers refer to the chain shown, from its start. Names may count otherwise.

B1: hBEW-5C3.1 (antibody, V domains shown)
VH: EIQLVQSGSELKKPGASVKVSCKASGYTFTNYGVYWVKQAPGQGLEYMGWINTETGKPTYADDFKGRFVFSLDTSVSTAYLQISSLKAEDTAVYYCARARQLDWFVYWGQGTLVTVSS
VL: DTVLTQSPATLSLSPGERATLSCRARESLTTSLSWFQQKPGQQPRLLIYGASKLESGVPARFSGSGSGTDFTLTISSLEPEDFAVYFCQQSWYDPPTFGGGTKVEIK
B2: hBEW-5C3.4 (antibody, V domains shown)
VH: B1 VH
VL: DTQLTQSPSSLSASVGDRVTISCRARESLTTSLSWFQQKPGKQPKLLIYGASKLESGVPSRFSGSGSGTDFTLTISSLQPEDFATYFCQQSWYDPPTFGGGTKVEIK
B3: hBEW-5C3.3 (antibody, V domains shown)
VH: EVQLVQSGAEVKKPGSSVKVSCKASGYTFTNYGVYWVRQAPGQGLEWMGWINTETGKPTYADDFKGRFTFTLDKSTSTAYMELSSLRSEDTAVYYCARARQLDWFVYWGQGTLVTVSS
VL: B1 VL
B4: hBEW-5C3.2 (antibody, V domains shown)
VH: B3 VH with V2I, R38K, W47Y, Y95F
VL: B1 VL
B5: hBEW-1B10.1 (antibody, V domains shown)
VH: EVQLVESGGGLVQPGGSLRLSCAASGFSFSKYDMAWFRQAPGKGLEWVASITTSGVGTYYRDSVKGRFTVSRDNAKSTLYLQMNSLRAEDTAVYYCARGYGAMDAWGQGTTVTVSS
VL: DIQMTQSPSSLSASVGDRVTITCKASQDIDDYLSWYQQKPGKSPKLVIYAATRLADGVPSRFSGSGSGTDYTLTISSLQPEDFATYYCLQSSSTPWTFGGGTKVEIK
B6: hBEW-1B10.2 (antibody, V domains shown)
VH: B5 VH with S77N, T78S
VL: B5 VL
B7: hBEW-5C3.5 (antibody, V domains shown)
VH: B3 VH with V2I, R38K, W47Y, Y95F
VL: B2 VL
B8: hBEW-5C3.6 (antibody, V domains shown)
VH: B3 VH
VL: B2 VL
B9: hBEW-9E10.1 (antibody, V domains shown)
VH: EIQLVQSGSELKKPGASVKVSCKASGYTFTNYGMYWVKQAPGQGLEYMGWIDTETGRPTYADDFKGRFVFSLDTSVSTAYLQISSLKAEDTAVYFCARWSGDTTGIRGPWFAYWGQGTLVTVSS
VL: DIRMTQSPSSLSASVGDRVTIECLASEDIYSDLAWYQQKPGKSPKLLIYNANGLQNGVPSRFSGSGSGTDYSLTISSLQPEDVATYFCQQYNYFPGTFGQGTKLEIK
B10: hBEW-9E10.6 (antibody, V domains shown)
VH: EVQLVQSGAEVKKPGSSVKVSCKASGYTFTNYGMYWVRQAPGQGLEWMGWIDTETGRPTYADDFKGRFTFTADKSTSTAYMELSSLRSEDTAVYYCARWSGDTTGIRGPWFAYWGQGTLVTVSS
VL: B9 VL with E22T, S72T
B11: hBEW-9E10.5 (antibody, V domains shown)
VH: B10 VH with V2I, R38K, W47Y, Y95F
VL: B9 VL with E22T, S72T
B12: hBEW-9E10.4 (antibody, V domains shown)
VH: B9 VH
VL: B9 VL with E22T, S72T
B13: hBEW-9E10.3 (antibody, V domains shown)
VH: B10 VH
VL: B9 VL
B14: hBEW-9E10.2 (antibody, V domains shown)
VH: B10 VH with V2I, R38K, W47Y, Y95F
VL: B9 VL
B15: hBEW-9A8.17 (antibody, V domains shown)
VH: EIQLVQSGSELKKPGASVKVSCKASGYTFTNYGMYWVKQAPGQGLEYMGWINTETGKPIYADDFKGRFVFSLDTSVSTAYLQISSLKAEDTAVYYCARVDYDGSFWFAYWGQGTLVTVSS
VL: ETVLTQSPATLSLSPGERATLSCRASESVSTVIHWYQQKPGQQPRLLIHGASNLESGVPARFSGSGSGTDFTLTISSLEPEDFAVYFCQQHWNDPPTFGQGTKLEIK
B16: hBEW-9A8.21 (antibody, V domains shown)
VH: EIQLVQSGAEVKKPGASVKVSCKASGYTFTNYGMYWVRQAPGQGLEWMGWINTETGKPIYADDFKGRFTFTLDTSTSTAYMELRSLRSDDTAVYYCARVDYDGSFWFAYWGQGTLVTVSS
VL: B15 VL
B17: hBEW-9A8.20 (antibody, V domains shown)
VH: B16 VH with R38K, W47Y
VL: B15 VL
B18: hBEW-1E3.3 (antibody, V domains shown)
VH: EVQLVQSGAEVKKPGASVKVSCKASGYPFTNSGMYWVRQAPGQGLEWMGWINTEAGKPTYADDFKGRFTFTLDTSTSTAYLEIRSLRSDDTAVYYCARWGYISDNSYGWFDYWGQGTLVTVSS
VL: ETVLTQSPATLSLSPGERATLSCRASEGVYSYMHWYQQKPGQQPRLLIYKASNLASGVPARFSGSGSGTDFTLTISSLEPEDFAVYFCHQNWNDPLTFGQGTKLEIK
B19: 3E2.1_GS_1E3.4 (PR-1613190) (bispecific antibody, human IgG1, kappa, L234A L235A)
heavy: EVQLVQSGAEVKKPGSSVKVSCKASGYTFTESYMYWVKQAPGQGLELIGRIDPEDGSTDYVEKFKNKATLTADKSTSTAYMELSSLRSEDTAVYFCARFGARSYFYPMDAWGQGTTVTVSSGGGGSGGGGSEIQLVQSGSELKKPGASVKVSCKASGYPFTNSGMYWVKQAPGQGLEYMGWINTEAGKPTYADDFKGRFVFSLDTSVSTAYLQISSLKAEDTAVYFCARWGYISDNSYGWFDYWGQGTLVTVSSASTKGPSVFPLAPSSKSTSGGTAALGCLVKDYFPEPVTVSWNSGALTSGVHTFPAVLQSSGLYSLSSVVTVPSSSLGTQTYICNVNHKPSNTKVDKKVEPKSCDKTHTCPPCPAPEAAGGPSVFLFPPKPKDTLMISRTPEVTCVVVDVSHEDPEVKFNWYVDGVEVHNAKTKPREEQYNSTYRVVSVLTVLHQDWLNGKEYKCKVSNKALPAPIEKTISKAKGQPREPQVYTLPPSREEMTKNQVSLTCLVKGFYPSDIAVEWESNGQPENNYKTTPPVLDSDGSFFLYSKLTVDKSRWQQGNVFSCSVMHEALHNAYTQKSLSLSPGK
light: ETVLTQSPATLSLSPGERATLSCRASESVSTLMHWYQQKPGQQPRLLIYGASNLESGVPARFSGSGSGTDFTLTISSLEPEDFAVYFCQQSWNDPWTFGGGTKVEIKGGSGGGGSGGATQLTQSPSSLSASVGDRVTISCRASEGVYSYMHWYQQKPGKQPKLLIYKASNLASGVPSRFSGSGSGTDFTLTISSLQPEDFATYFCHQNWNDPLTFGQGTKLEIKRTVAAPSVFIFPPSDEQLKSGTASVVCLLNNFYPREAKVQWKVDNALQSGNSQESVTEQDSKDSTYSLSSTLTLSKADYEKHKVYACEVTHQGLSSPVTKSFNRGEC
notes: DVD-Ig: outer hBFU-3E2.1 (PDGF), inner hBEW-1E3.4 (VEGF), linkers GS-H10 / GS-L10(dR); Human IgG1 L234A, L235A, H435A with kappa light chain
B20: CL-28815-IgG (EI version of parent mAb) (antibody, V domains shown)
VH: EVQLVQSGSELKKPGASVKVSCKASGYTFTNYGMYWVRQAPGQGLEWMGWINTETGKPTYADDFKGRFVFSLDTSVSTAYLQISSLKAEDTAVYYCARTNYYYRSYIFYFDYWGQGTMVTVSS
VL: B15 VL with T2I, V32H, I33M, Q43A, H49Y, H91S, P96F
notes: IgG format

target: Human VEGF-A 165 (human, UniProt P15692 207-395); assay: cell-based or functional assay
Sequence (P15692 other isoform, or with tags, fused parts or gaps limits assumed): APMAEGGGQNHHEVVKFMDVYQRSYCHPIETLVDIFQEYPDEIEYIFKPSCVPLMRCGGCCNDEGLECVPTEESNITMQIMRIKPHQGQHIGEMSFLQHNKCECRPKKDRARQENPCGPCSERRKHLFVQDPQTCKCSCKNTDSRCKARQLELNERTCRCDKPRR

B1 and B2 are within 1.5-fold of each other in “hVEGF165 IC50 (nM), HMVEC-d proliferation” value (“hVEGF165 IC50 (nM)” for short): 0.071 nM for the first, 0.098 nM for the second.

Compared with B3, B4 is lower in “hVEGF165 IC50 (nM)” value: > 2 nM for the first, 0.162 nM for the second.

B5 and B6 are within 1.5-fold of each other in “hVEGF165 IC50 (nM)” value: 0.168 nM for the first, 0.222 nM for the second.

Going from B7 to B8, the “hVEGF165 IC50 (nM)” value rises from 0.123 nM to > 2 nM.

B9 and B10 are within 1.5-fold of each other in “hVEGF165 IC50 (nM)” value: 0.064 nM for the first, 0.068 nM for the second.

Going from B11 to B12, the “hVEGF165 IC50 (nM)” value falls from 0.229 nM to 0.071 nM (3.2-fold).

Going from B13 to B14, the “hVEGF165 IC50 (nM)” value rises from 0.062 nM to 0.181 nM (2.9-fold).

First: B15
Second: B16
The “hVEGF165 IC50 (nM)” value of the first is 1.5-fold lower: 0.059 nM for the first, 0.09 nM for the second.

First: B17
Second: B18
The “hVEGF165 IC50 (nM)” value of the first is 3.2-fold lower: 0.064 nM for the first, 0.205 nM for the second.

target: VEGF-A (UniProt P15692-4 27-191, limits assumed); assay: SPR (Biacore), DVD-Ig captured by anti-human Fc, antigen injected
Procedure, shortened: (§1)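 Antibodies or DVD-Ig molecules (1 μg/ml) were captured on an anti-human Fc CM5 surface, with antigen injected in solution and responses referenced to the capture-only surface. Rate constants came from a global 1:1 Langmuir fit, and KD = koff/kon.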

Sequence of VEGF-A (P15692 other isoform, or with tags, fused parts or gaps limits assumed): as above

B19 was tested, and the Kd was 0.26 nM.

For B19, the kon was 360000 M⁻¹ s⁻¹.

target: PDGF-BB (UniProt P01127 82-190); assay: as above
Procedure, shortened: as §1

Sequence of PDGF-BB (P01127 82-190): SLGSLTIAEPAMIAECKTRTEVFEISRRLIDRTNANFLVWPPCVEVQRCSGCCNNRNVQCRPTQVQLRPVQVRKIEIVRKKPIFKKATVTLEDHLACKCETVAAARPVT

B19 was tested, and the Kd was ≤ 0.0053 nM.

B19 was tested, and the kon was ≥ 9e+07 M⁻¹ s⁻¹.

target: T1, recombinant human VEGF165 (human, UniProt P15692 207-395); assay: SPR (Biacore), antibody captured by anti-human Fc, hVEGF165 in solution
T1 construct: also called hVEGF165
Procedure: Unreacted moieties on the biosensor surface were blocked with ethanolamine. For kinetic analysis, rate equations derived from the 1:1 Langmuir binding model were fitted simultaneously to multiple antigen injections (using global fit analysis) with the use of Scrubber 2 (BioLogic Software), Biacore Biaevaluation 4.0.1 software or Biacore T100 Evaluation software. Purified antibodies or DVD-Ig molecules were diluted in running buffer for capture across goat anti-human Fc reaction surfaces. Antibodies or DVD-Ig molecules to be captured as a ligand (1 μg/ml) were injected over reaction matrices at a flow rate of 10 μl/minute. During the assay, all measurements were referenced against the capture surface alone (i.e., with no captured antibody or DVD-Ig molecule). […] The equilibrium dissociation constant KD (M) of the reaction between antibodies and the target antigen was then calculated from the kinetic rate constants by the following formula: KD=Koff/Kₒₙ. Binding was recorded as a function of time and kinetic rate constants were calculated. In this assay, on-rates as fast as 10⁶M⁻¹s⁻¹ and off-rates as slow as 10⁻⁶ s⁻¹ could be measured.
Affinity matured humanized anti-VEGF antibodies were characterized for hVEGF₁₆₅ binding and potency. Binding affinity of these molecules to hVEGF₁₆₅ was determined by Biacore analysis (Example 1.1). Potency was evaluated in both cell-based and ELISA formats. The ability to block binding of hVEGF₁₆₅ to hVEGFR2 was evaluated in a competition ELISA (Example 1.4) Inhibition of hVEGF₁₆₅-induced cell proliferation was assessed using HMVEC-d cells (Example 1.10).

T1 sequence (P15692 other isoform, or with tags, fused parts or gaps limits assumed): as the sequence (P15692 other isoform, or with tags, fused parts or gaps limits assumed) above

B20 showed a Kd of 0.012 nM.

With B20 the kon was 9.2e+06 M⁻¹ s⁻¹.
